Assay results reported in paper PMC12412624, “Engineered Cas12j‐8 is a Versatile Platform for Multiplexed Genome Modulation in Mammalian Cells”.

T1: Cas12j-8 E258R+D313R+D495R+D527R+E547R (bacteriophage (metagenome), E258R;D313R;D495R;D527R;E547R)
T1 chain: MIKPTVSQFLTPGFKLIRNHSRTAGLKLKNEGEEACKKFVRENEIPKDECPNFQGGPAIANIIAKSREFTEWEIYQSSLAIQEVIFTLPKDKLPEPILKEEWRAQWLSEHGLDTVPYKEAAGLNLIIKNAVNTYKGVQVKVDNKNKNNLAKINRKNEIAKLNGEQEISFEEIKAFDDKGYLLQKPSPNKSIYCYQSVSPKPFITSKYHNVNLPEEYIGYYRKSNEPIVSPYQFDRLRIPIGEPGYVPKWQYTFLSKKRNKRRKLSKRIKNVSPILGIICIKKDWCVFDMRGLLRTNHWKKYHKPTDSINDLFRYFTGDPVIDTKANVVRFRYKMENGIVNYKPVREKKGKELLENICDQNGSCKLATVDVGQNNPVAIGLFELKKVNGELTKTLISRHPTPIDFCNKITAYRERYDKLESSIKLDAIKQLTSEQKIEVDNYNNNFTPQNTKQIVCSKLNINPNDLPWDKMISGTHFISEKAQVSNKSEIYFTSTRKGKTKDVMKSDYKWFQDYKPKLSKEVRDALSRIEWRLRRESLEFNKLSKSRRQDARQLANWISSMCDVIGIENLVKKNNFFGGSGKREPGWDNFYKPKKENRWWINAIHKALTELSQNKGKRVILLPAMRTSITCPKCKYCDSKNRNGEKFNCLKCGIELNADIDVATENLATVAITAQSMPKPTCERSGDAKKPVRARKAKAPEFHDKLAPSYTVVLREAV

T2: Cas12j-8 WT (bacteriophage (metagenome))
T2 chain: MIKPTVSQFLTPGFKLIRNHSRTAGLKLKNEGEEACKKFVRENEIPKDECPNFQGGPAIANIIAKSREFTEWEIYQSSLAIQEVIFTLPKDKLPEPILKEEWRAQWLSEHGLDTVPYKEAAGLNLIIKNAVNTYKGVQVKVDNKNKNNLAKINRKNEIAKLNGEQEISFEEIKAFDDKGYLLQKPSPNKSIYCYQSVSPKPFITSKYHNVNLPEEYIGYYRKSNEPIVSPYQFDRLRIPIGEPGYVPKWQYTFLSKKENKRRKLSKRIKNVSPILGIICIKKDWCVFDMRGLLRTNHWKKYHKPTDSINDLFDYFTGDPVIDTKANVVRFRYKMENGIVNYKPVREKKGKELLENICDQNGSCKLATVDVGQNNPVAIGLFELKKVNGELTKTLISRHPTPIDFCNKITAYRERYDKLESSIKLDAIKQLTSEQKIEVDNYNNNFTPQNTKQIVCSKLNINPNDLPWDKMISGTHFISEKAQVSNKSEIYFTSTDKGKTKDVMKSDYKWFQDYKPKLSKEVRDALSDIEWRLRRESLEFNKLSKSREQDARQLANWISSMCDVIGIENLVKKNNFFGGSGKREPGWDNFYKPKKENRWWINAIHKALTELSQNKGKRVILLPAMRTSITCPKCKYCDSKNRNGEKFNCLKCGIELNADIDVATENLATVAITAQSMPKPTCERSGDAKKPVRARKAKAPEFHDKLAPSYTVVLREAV


Tests used:
[1] = target: T1, Cas12j-8 E258R+D313R+D495R+D527R+E547R; assay: HEK293T cells; details: tags: NLS
Cas12j-8 WT = target: T2, Cas12j-8 WT; assay: HEK293T cells; details: tags: NLS

Binder	indel frequency [1] [% indels]	indel frequency (Cas12j-8 WT) [% indels]
apobsite9 (mixed) RNA: CUUUCAAGACUAAUAGAUUGCUCCUUACGAGGAGACCAAGCAGAAGCCAGAAGUGA DNA 1: TTGCAAGCAGAAGCCAGAAGTGA DNA 2: TCACTTCTGGCTTCTGCTTGCAA	15.6	1.17
tcfsite3 (mixed) RNA: CUUUCAAGACUAAUAGAUUGCUCCUUACGAGGAGACCUAAACCAAGUCCCAGACAU DNA 1: TTCCTAAACCAAGTCCCAGACAT DNA 2: ATGTCTGGGACTTGGTTTAGGAA	–	3.82
apobsite10 (mixed) RNA: CUUUCAAGACUAAUAGAUUGCUCCUUACGAGGAGACGCAGGCGACCAGUGGGCGAG DNA 1: TTGGCAGGCGACCAGTGGGCGAG DNA 2: CTCGCCCACTGGTCGCCTGCCAA	22.1	8.3
cd274site9 (mixed) RNA: CUUUCAAGACUAAUAGAUUGCUCCUUACGAGGAGACCUCAGGAUCUAAUCUCCUAA DNA 1: TTCCTCAGGATCTAATCTCCTAA DNA 2: TTAGGAGATTAGATCCTGAGGAA	34.3	9.46
apobsite4 (mixed) RNA: CUUUCAAGACUAAUAGAUUGCUCCUUACGAGGAGACGUGGCAAAUCCUCCAGAGAU DNA 1: TTGGTGGCAAATCCTCCAGAGAT DNA 2: ATCTCTGGAGGATTTGCCACCAA	27.8	11.9
alas1site3 (mixed) RNA: CUUUCAAGACUAAUAGAUUGCUCCUUACGAGGAGACGUGAUGAGGGAGUCUGAAUA DNA 1: TTGGTGATGAGGGAGTCTGAATA DNA 2: TATTCAGACTCCCTCATCACCAA	34.2	10.1
angptl3site12 (mixed) RNA: CUUUCAAGACUAAUAGAUUGCUCCUUACGAGGAGACCAGUCUUCCAACUCAAUUCG DNA 1: TTCCAGTCTTCCAACTCAATTCG DNA 2: CGAATTGAGTTGGAAGACTGGAA	22.2	–
tgfbr2site8 (mixed) RNA: CUUUCAAGACUAAUAGAUUGCUCCUUACGAGGAGACCCAGGUUGAACUCAGCUUCU DNA 1: TTCCCAGGTTGAACTCAGCTTCT DNA 2: AGAAGCTGAGTTCAACCTGGGAA	51.6	14.8
tigitsite4 (mixed) RNA: CUUUCAAGACUAAUAGAUUGCUCCUUACGAGGAGACUAGGACCUCCAGGAAGAUUC DNA 1: TTCTAGGACCTCCAGGAAGATTC DNA 2: GAATCTTCCTGGAGGTCCTAGAA	28.3	–
cishsite2 (mixed) RNA: CUUUCAAGACUAAUAGAUUGCUCCUUACGAGGAGACGCUCACUCUCUGUCUGGGCU DNA 1: TTGGCTCACTCTCTGTCTGGGCT DNA 2: AGCCCAGACAGAGAGTGAGCCAA	16.3	–
tcfsite8 (mixed) RNA: CUUUCAAGACUAAUAGAUUGCUCCUUACGAGGAGACCAGGCUCUGACUCAGGGAAG DNA 1: TTGCAGGCTCTGACTCAGGGAAG DNA 2: CTTCCCTGAGTCAGAGCCTGCAA	–	2.92
vegfasite3 (mixed) RNA: CUUUCAAGACUAAUAGAUUGCUCCUUACGAGGAGACUGCUGUCUUGGGUGCAUUGG DNA 1: TTCTGCTGTCTTGGGTGCATTGG DNA 2: CCAATGCACCCAAGACAGCAGAA	77.4	44.7
cishsite3 (mixed) RNA: CUUUCAAGACUAAUAGAUUGCUCCUUACGAGGAGACACUGACAGCGUGAACAGGUA DNA 1: TTCACTGACAGCGTGAACAGGTA DNA 2: TACCTGTTCACGCTGTCAGTGAA	43.1	2.97
cxcr4site5 (mixed) RNA: CUUUCAAGACUAAUAGAUUGCUCCUUACGAGGAGACGGAACUUCCUAUGCAAGGCA DNA 1: TTGGGAACTTCCTATGCAAGGCA DNA 2: TGCCTTGCATAGGAAGTTCCCAA	61.4	35.6
ccr5site9 (mixed) RNA: CUUUCAAGACUAAUAGAUUGCUCCUUACGAGGAGACAGAUCUGGUAAAGAUGAUUC DNA 1: TTGAGATCTGGTAAAGATGATTC DNA 2: GAATCATCTTTACCAGATCTCAA	72.7	45.4
pcsk9site5 (mixed) RNA: CUUUCAAGACUAAUAGAUUGCUCCUUACGAGGAGACUGUCACAGAGUGGGACAUCA DNA 1: TTGTGTCACAGAGTGGGACATCA DNA 2: TGATGTCCCACTCTGTGACACAA	61.2	25.8
sod1site5 (mixed) RNA: CUUUCAAGACUAAUAGAUUGCUCCUUACGAGGAGACAUUAUUAGGCAUGUUGGAGA DNA 1: TTCATTATTAGGCATGTTGGAGA DNA 2: TCTCCAACATGCCTAATAATGAA	59.7	16.5
cd274site6 (mixed) RNA: CUUUCAAGACUAAUAGAUUGCUCCUUACGAGGAGACGUUGUGGAUCCAGUCACCUC DNA 1: TTGGTTGTGGATCCAGTCACCTC DNA 2: GAGGTGACTGGATCCACAACCAA	59.2	21
ccr5site10 (mixed) RNA: CUUUCAAGACUAAUAGAUUGCUCCUUACGAGGAGACCAUACAGUCAGUAUCAAUUC DNA 1: TTCCATACAGTCAGTATCAATTC DNA 2: GAATTGATACTGACTGTATGGAA	–	4.92
ccr5site4 (mixed) RNA: CUUUCAAGACUAAUAGAUUGCUCCUUACGAGGAGACCUUCUUACUGUCCCCUUCUG DNA 1: TTCCTTCTTACTGTCCCCTTCTG DNA 2: CAGAAGGGGACAGTAAGAAGGAA	68.7	28.2
alas1site9 (mixed) RNA: CUUUCAAGACUAAUAGAUUGCUCCUUACGAGGAGACGCAUGACUCCAUCCCGAUCC DNA 1: TTGGCATGACTCCATCCCGATCC DNA 2: GGATCGGGATGGAGTCATGCCAA	44	20
ccr5site5 (mixed) RNA: CUUUCAAGACUAAUAGAUUGCUCCUUACGAGGAGACGAAAUACAAUGUGUCAACUC DNA 1: TTGGAAATACAATGTGTCAACTC DNA 2: GAGTTGACACATTGTATTTCCAA	54	12.1
cxcr4site8 (mixed) RNA: CUUUCAAGACUAAUAGAUUGCUCCUUACGAGGAGACAGCACAUCAUGGUUGGCCUU DNA 1: TTCAGCACATCATGGTTGGCCTT DNA 2: AAGGCCAACCATGATGTGCTGAA	36.5	10.9
vegfasite4 (mixed) RNA: CUUUCAAGACUAAUAGAUUGCUCCUUACGAGGAGACUUGUGCUGUAGGAAGCUCAU DNA 1: TTGTTGTGCTGTAGGAAGCTCAT DNA 2: ATGAGCTTCCTACAGCACAACAA	–	5.55
